Here are results for one molecule from patent US20100093623A1, “COMPOSITIONS AND METHODS FOR […]-LIKE RECEPTOR ACTIVITY AND USES THEREOF” (Burnham Institute for Medical Research, priority 2008, published 2010).

The assay has as its target T1, (His)6-NLRP1 (NLR family, pyrin domain-containing 1), purified recombinant full-length protein from Sf21 cells (human), Q9C000.
T1 chain: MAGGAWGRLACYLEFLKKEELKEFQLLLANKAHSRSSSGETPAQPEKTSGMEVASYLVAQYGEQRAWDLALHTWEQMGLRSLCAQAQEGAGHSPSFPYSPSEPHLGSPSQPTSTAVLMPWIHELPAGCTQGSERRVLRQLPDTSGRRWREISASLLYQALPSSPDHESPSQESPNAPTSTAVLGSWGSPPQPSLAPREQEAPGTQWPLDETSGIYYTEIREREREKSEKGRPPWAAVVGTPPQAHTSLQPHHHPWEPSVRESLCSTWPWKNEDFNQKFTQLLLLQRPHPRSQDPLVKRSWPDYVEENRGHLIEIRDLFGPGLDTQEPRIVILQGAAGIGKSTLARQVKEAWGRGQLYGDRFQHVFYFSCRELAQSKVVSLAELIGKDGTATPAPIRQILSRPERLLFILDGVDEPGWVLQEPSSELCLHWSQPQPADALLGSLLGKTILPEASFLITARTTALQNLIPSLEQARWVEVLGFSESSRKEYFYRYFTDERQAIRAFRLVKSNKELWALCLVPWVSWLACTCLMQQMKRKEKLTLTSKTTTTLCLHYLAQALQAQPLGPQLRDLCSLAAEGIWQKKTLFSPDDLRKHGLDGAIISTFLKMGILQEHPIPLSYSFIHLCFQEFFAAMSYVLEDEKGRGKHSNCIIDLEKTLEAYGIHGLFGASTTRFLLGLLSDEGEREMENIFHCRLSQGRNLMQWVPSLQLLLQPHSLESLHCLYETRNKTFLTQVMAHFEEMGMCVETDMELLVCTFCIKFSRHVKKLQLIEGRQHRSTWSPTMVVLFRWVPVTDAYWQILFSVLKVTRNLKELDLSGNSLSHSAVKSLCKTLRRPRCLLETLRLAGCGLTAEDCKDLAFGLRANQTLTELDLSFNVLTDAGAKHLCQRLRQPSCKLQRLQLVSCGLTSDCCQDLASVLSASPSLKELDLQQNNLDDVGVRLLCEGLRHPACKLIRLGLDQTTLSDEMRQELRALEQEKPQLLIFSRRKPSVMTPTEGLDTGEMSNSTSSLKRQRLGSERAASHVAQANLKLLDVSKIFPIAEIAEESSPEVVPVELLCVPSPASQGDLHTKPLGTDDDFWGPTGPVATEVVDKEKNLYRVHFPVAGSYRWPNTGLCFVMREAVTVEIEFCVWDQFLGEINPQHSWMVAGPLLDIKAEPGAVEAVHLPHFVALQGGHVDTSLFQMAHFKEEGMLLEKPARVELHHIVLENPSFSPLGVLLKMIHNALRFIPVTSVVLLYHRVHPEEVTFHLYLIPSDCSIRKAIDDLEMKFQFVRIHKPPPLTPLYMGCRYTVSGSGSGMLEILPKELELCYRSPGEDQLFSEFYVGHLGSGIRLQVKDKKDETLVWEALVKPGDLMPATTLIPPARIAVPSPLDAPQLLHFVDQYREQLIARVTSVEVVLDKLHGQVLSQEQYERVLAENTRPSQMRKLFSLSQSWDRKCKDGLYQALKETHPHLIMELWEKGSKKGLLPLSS
The assay can be described thus: cell-based or functional assay.

B1: Bcl-2 Loop peptide 71-90 (synthetic 20'mer) (peptide)
peptide: PLQTPAAPGAAAGPALSPVP
modifications: not checked
As to B1, the IC50 (concentration to inhibit NLRP1-induced Caspase-1 activity by 50%) worked out at 9.92 nM.
